Results: the supplement of paper PMC7877785
± gives the uncertainty stated by the source.

Assay: self-splicing fitness, log relative to wild type (ln ratio); higher = more splicing; Tetrahymena group I intron in knt gene, E. coli kanamycin selection, DiMSum; sequences stand for … in CUCUCU…GGAGGGAAAAGUUAUCAGGCAUGCACCUGGUAGCUAGUCUUUAAACCAAUAGAUUGCAUCGGUUUAAAAGGCAAGACCGUCAAAUUGCGGGAAAGGGGUCAACAGCCGUUCAGUACCAAGUCUCAGGGGAAACUUUGAGAUGGCCUUGCAAAGGGUAUGGUAAUAAGCUGACGGACAUGGUCCUAACCACGCAGCCAAGUCCUAAGUCAACAGAUCUUCUGUUGAUAUGGAUGCAGUUCACAGACUAAAUGUCGGUCGGGGAAGAUGUAUUCUUCUCAUAAGAUAUAGUCGGACCUCUCCUUAAUGGGAGCUAGCGGAUGAAGUGAUGCAACACUGGAGCCGCUGGGAACUAAUUUGUAUGCGAAAGUAUAUUGAUUAGUUUUGGAGUACUCGUGGUCG
Procedure, shortened: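 Library with all eight P1ex-region intron nucleotides randomised, intron inside the knt kanamycin-resistance gene on pET-22b(+), in E. coli BL21(DE3). Cells grew overnight at 37°C or 30°C on LB agar with or without 25 μg/mL kanamycin (plus 100 μg/mL carbenicillin, 50 μM IPTG, 0.2% rhamnose), in six replicate transformations. Pooled colonies were amplicon-sequenced on Illumina HiSeq 2500. DiMSum fitness is the error-weighted combination of wild-type-normalised replicate fold changes, kanamycin versus none.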

Sequence	self-splicing fitness (ln) (30 °C)	self-splicing fitness (ln) (37 °C)
CCACAGCAAUAUUACGUGAA	-2.7 ± 0.072	-1.01 ± 0.082
CCACAGCAAUAUUACGUGAU	-3.51 ± 0.18	-1.98 ± 0.12
CCACAGCAAUAUUACGUUGC	-3.44 ± 0.13	-2.73 ± 0.14
CCACAGCAAUAUUACGUUGU	-2.37 ± 0.076	-2.83 ± 0.13
CCAGAGCAAUAUUACGAAAU	-3.47 ± 0.23	-2.93 ± 0.25
CCAGAGCAAUAUUACGACAA		-2.03 ± 0.45
CCAGAGCAAUAUUACGACAC	-1.29 ± 0.22	
CCAGAGCAAUAUUACGACAG	-0.807 ± 0.094	-0.408 ± 0.15
CCAGAGCAAUAUUACGACGU	-3.74 ± 0.27	-3.28 ± 0.47
CCAGAGCAAUAUUACGAGAU	-4.57 ± 0.2	-3.15 ± 0.16
CCAGAGCAAUAUUACGAUAG	-1.42 ± 0.082	-1 ± 0.12
CCAGAGCAAUAUUACGCAUU	-3.53 ± 0.33	-2.22 ± 0.2
CCAGAGCAAUAUUACGCUAC		-1.72 ± 0.33
CCAGAGCAAUAUUACGGAAU	-3.42 ± 0.26	-2.52 ± 0.17
CCAGAGCAAUAUUACGGAGG	-2.49 ± 0.18	-1.87 ± 0.24
CCAGAGCAAUAUUACGGAUA	-3.52 ± 0.22	-1.91 ± 0.16
CCAGAGCAAUAUUACGGGGC	-3.91 ± 0.24	-2.8 ± 0.21
CCAGAGCAAUAUUACGGGGG	-3.72 ± 0.46	-2.44 ± 0.31
CCAGAGCAAUAUUACGGUGG	-3.31 ± 0.17	-3.31 ± 0.24
CCAGAGCAAUAUUACGUAUA		-2.35 ± 0.29
CCAGAGCAAUAUUACGUCUA	-2.37 ± 0.19	-2.23 ± 0.24
CCAGAGCAAUAUUACGUGCG	-1.59 ± 0.077	-0.888 ± 0.097
CCAGAGCAAUAUUACGUGUG	-1.69 ± 0.091	-1.54 ± 0.097
CCAGAGCAAUAUUACGUUCU	-3.71 ± 0.31	-1.84 ± 0.31
CCAGAGCAAUAUUACGUUGC	-4.54 ± 0.37	-2.11 ± 0.18

Sequence	self-splicing fitness (ln) (30 °C)	self-splicing fitness (ln) (37 °C)
CCAUAGCAAUAUUACGAAGG	-3.26 ± 0.22	-2.87 ± 0.34
CCAUAGCAAUAUUACGACUG	-0.667 ± 0.071	-0.0816 ± 0.087
CCAUAGCAAUAUUACGAGGA	-2.97 ± 0.25	-2.05 ± 0.25
CCAUAGCAAUAUUACGAGUA	-3.41 ± 0.32	-2.06 ± 0.19
CCAUAGCAAUAUUACGAUCA	-2.94 ± 0.18	-3.23 ± 0.29
CCAUAGCAAUAUUACGAUUU	-3.31 ± 0.2	-2.37 ± 0.23
CCAUAGCAAUAUUACGCAUA	-3.76 ± 0.26	-2.72 ± 0.29
CCAUAGCAAUAUUACGCCGC	-1.47 ± 0.21	
CCAUAGCAAUAUUACGCGCG	-0.974 ± 0.091	-0.0324 ± 0.1
CCAUAGCAAUAUUACGCGGU	-3.9 ± 0.23	-2.5 ± 0.26
CCAUAGCAAUAUUACGCGUG	-2.23 ± 0.095	-0.856 ± 0.085
CCAUAGCAAUAUUACGCUCG	-1.69 ± 0.1	-0.407 ± 0.13
CCAUAGCAAUAUUACGCUGU	-4.23 ± 0.39	-2.54 ± 0.29
CCAUAGCAAUAUUACGGAGA	-4.12 ± 0.28	-3.35 ± 0.29
CCAUAGCAAUAUUACGGAUA	-2.94 ± 0.21	-1.81 ± 0.21
CCAUAGCAAUAUUACGGCAU	-4.02 ± 0.24	-1.78 ± 0.2
CCAUAGCAAUAUUACGGGAG	-2.96 ± 0.15	-2.89 ± 0.25
CCAUAGCAAUAUUACGGUCU	-3.96 ± 0.33	-2.53 ± 0.28
CCAUAGCAAUAUUACGUACU	-4.18 ± 0.29	-2.3 ± 0.18
CCAUAGCAAUAUUACGUAGA	-3.86 ± 0.17	-2.53 ± 0.16
CCAUAGCAAUAUUACGUCAC	-3.48 ± 0.28	
CCAUAGCAAUAUUACGUGAG	-0.355 ± 0.045	0.00486 ± 0.066
CCAUAGCAAUAUUACGUGCG	-2.49 ± 0.15	-0.772 ± 0.15
CCAUAGCAAUAUUACGUUAU	-3.34 ± 0.14	-3.31 ± 0.21
